Results: patent publication US20250320281A1

Legend:
Assay in all cases: cell-based or functional assay
[1] = target: HIV-1 Env of isolate MGRM-C-026 (pseudovirus) (HIV-1)
[2] = target: HIV-1 Env of isolate JR-CSF (pseudovirus) (HIV-1) (UniProt P20871)
[3] = target: HIV-1 Env of isolate 92TH021 (pseudovirus) (HIV-1)
[4] = target: HIV-1 Env of isolate MGRM-F1-014 (HIV-1)
[5] = target: HIV-1 Env of isolate MG RM-D-029 (HIV-1)
[6] = target: HIV-1 Env of isolate MGRM-F1-022 (HIV-1)
[7] = target: HIV-1 Env of isolate MG RM-D-011 (HIV-1)
[8] = target: HIV-1 Env of isolate MG RM-D-021 (HIV-1)
[9] = target: HIV-1 Env of isolate MGRM-F1-010 (HIV-1)
[10] = target: HIV-1 Env of pseudovirus MGRM-AG-013 (subtype AG) (HIV-1)
[11] = target: HIV-1 Env of isolate MGRM-F1-016 (HIV-1)
[12] = target: HIV-1 Env of pseudovirus MGRM-AG-009 (subtype AG) (HIV-1)
[13] = target: HIV-1 Env of isolate MG RM-D-018 (HIV-1)
[14] = target: HIV-1 Env of pseudovirus MGRM-AG-005 (subtype AG) (HIV-1)
[15] = target: HIV-1 Env of isolate MG RM-D-020 (HIV-1)
[16] = target: HIV-1 Env of isolate MG RM-D-019 (HIV-1)
[17] = target: HIV-1 Env of isolate MG RM-D-028 (HIV-1)
[18] = target: HIV-1 Env of isolate MG RM-D-014 (HIV-1)
[19] = target: HIV-1 Env of isolate MGRM-F1-008 (HIV-1)
[20] = target: HIV-1 Env of isolate MG RM-D-012 (HIV-1)
[21] = target: HIV-1 Env of isolate MGRM-F1-017 (HIV-1)
[22] = target: HIV-1 Env of isolate MG RM-D-026 (HIV-1)
[23] = target: HIV-1 Env of isolate MGRM-F1-020 (HIV-1)
[24] = target: HIV-1 Env of pseudovirus MGRM-AG-008 (subtype AG) (HIV-1)
[25] = target: HIV-1 Env of isolate MGRM-F1-023 (HIV-1)
[26] = target: HIV-1 Env of pseudovirus MGRM-AG-002 (subtype AG) (HIV-1)
[27] = target: HIV-1 Env of isolate MGRM-F1-018 (HIV-1)
[28] = target: HIV-1 Env of isolate MG RM-D-016 (HIV-1)
[29] = target: HIV-1 Env of pseudovirus MGRM-AE-007 (subtype AE) (HIV-1)
[30] = target: HIV-1 Env of isolate MG RM-D-022 (HIV-1)
[31] = target: HIV-1 Env of pseudovirus MGRM-AG-006 (subtype AG) (HIV-1)
[32] = target: HIV-1 Env of pseudovirus MGRM-AG-012 (subtype AG) (HIV-1)
[33] = target: HIV-1 Env of pseudovirus MGRM-AE-008 (subtype AE) (HIV-1)
[34] = target: HIV-1 Env of pseudovirus MGRM-AG-011 (subtype AG) (HIV-1)
[35] = target: HIV-1 Env of pseudovirus MGRM-AG-001 (subtype AG) (HIV-1)
[36] = target: HIV-1 Env of isolate MG RM-D-013 (HIV-1)
[37] = target: HIV-1 Env of isolate MGRM-F1-012 (HIV-1)
[38] = target: HIV-1 Env of isolate MG RM-D-024 (HIV-1)
[39] = target: HIV-1 Env of isolate MGRM-F1-013 (HIV-1)
[40] = target: HIV-1 Env of isolate MGRM-F1-015 (HIV-1)
[41] = target: HIV-1 Env of isolate MGRM-F1-004 (HIV-1)
[42] = target: HIV-1 Env of pseudovirus MGRM-AG-003 (subtype AG) (HIV-1)
[43] = target: HIV-1 Env of isolate MGRM-F1-006 (HIV-1)
[44] = target: HIV-1 Env of isolate MGRM-F1-021 (HIV-1)
[45] = target: HIV-1 Env of isolate MGRM-C-014 (HIV-1)
[46] = target: HIV-1 Env of isolate MGRM-C-028 (HIV-1)
[47] = target: HIV-1 Env of isolate MGRM-C-026 (HIV-1)
[48] = target: HIV-1 Env of isolate MGRM-C-023 (HIV-1)
[49] = target: HIV-1 Env of isolate MGRM-C-015 (HIV-1)
[50] = target: HIV-1 Env of isolate MGRM-C-020 (HIV-1)
[51] = target: HIV-1 Env of isolate MGRM-C-017 (HIV-1)
[52] = target: HIV-1 Env of isolate MGRM-C-027 (HIV-1)
[53] = target: HIV-1 Env of isolate MGRM-C-022 (HIV-1)
[54] = target: HIV-1 Env of isolate MGRM-C-025 (HIV-1)
[55] = target: HIV-1 Env of isolate MGRM-C-024 (HIV-1)
[56] = target: HIV-1 Env of isolate MGRM-C-019 (HIV-1)

PGT-143 (antibody), sequence (VH): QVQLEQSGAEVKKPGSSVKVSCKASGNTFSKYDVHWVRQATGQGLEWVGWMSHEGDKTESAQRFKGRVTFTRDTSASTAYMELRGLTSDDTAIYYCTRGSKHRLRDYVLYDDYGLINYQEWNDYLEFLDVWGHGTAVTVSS
PGT-143 (antibody), sequence (VL): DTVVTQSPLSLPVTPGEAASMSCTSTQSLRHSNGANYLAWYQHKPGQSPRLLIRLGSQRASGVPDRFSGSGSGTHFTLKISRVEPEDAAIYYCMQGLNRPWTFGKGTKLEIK
PGT-142 (4995_E20) (antibody), sequence (VH): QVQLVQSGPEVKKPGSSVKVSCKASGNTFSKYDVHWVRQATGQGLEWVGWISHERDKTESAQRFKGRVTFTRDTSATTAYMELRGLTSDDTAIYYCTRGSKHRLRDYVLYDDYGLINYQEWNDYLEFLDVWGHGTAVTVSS
PGT-142 (4995_E20) (antibody), sequence (VL): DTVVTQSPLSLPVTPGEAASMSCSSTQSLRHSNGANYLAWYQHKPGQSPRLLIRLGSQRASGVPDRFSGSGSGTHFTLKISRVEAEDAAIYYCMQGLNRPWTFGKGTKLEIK
PGT-145 (antibody), sequence (VH): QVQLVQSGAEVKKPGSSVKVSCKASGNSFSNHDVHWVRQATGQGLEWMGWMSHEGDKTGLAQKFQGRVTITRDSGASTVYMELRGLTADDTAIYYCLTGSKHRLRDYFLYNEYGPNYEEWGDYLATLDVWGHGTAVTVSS
PGT-145 (antibody), sequence (VL): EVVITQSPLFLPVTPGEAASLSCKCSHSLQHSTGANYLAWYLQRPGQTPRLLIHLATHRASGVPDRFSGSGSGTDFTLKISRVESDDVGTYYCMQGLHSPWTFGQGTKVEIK
PGT-141 (antibody), sequence (VH): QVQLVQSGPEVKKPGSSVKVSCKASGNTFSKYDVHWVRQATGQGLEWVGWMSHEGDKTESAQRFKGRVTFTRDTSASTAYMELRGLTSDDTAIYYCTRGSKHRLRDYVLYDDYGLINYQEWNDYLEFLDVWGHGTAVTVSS
PGT-144 (4970_K22) (antibody), sequence (VH): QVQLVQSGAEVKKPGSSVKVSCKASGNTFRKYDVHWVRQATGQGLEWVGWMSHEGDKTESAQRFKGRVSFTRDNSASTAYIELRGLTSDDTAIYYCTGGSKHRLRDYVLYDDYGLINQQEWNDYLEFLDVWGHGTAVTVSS
PGT-144 (4970_K22) (antibody), sequence (VL): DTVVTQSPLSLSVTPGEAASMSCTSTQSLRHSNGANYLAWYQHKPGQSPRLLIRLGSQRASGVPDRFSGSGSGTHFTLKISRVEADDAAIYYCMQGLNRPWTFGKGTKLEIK

5113_D22 (labelled PGT-132 in Table 26) (antibody)
Primary Neutralization Index (B cell culture supernatant) [1]: 6
Primary Neutralization Index (B cell culture supernatant) [2]: 3
Primary Neutralization Index (B cell culture supernatant) [3]: 51

PGT-144 (4970_K22) (antibody)
IC50 [4]: 14 ng/mL
IC50 [5]: 0.459 µg/mL
IC50 [6]: 0.382 µg/mL
IC50 [7]: > 50 µg/mL
IC50 [8]: > 50 µg/mL
IC50 [9]: > 50 µg/mL
IC50, pseudovirus neutralization [10]: > 50 µg/mL
IC50 [11]: > 50 µg/mL
IC50, pseudovirus neutralization [12]: > 50 µg/mL
IC50 [13]: > 50 µg/mL
IC50, pseudovirus neutralization [14]: > 50 µg/mL
IC50 [15]: > 50 µg/mL
IC50 [16]: > 50 µg/mL
IC50 [17]: > 50 µg/mL
IC50 [18]: 0.113 µg/mL
IC50 [19]: 0.507 µg/mL
IC50 [20]: > 50 µg/mL
IC50 [21]: > 50 µg/mL
IC50 [22]: > 50 µg/mL
IC50 [23]: 8.93 µg/mL
IC50, pseudovirus neutralization [24]: > 50 µg/mL
IC50 [25]: 1.16 µg/mL
IC50, pseudovirus neutralization [26]: 7.78 µg/mL
IC50 [27]: > 50 µg/mL
IC50 [28]: > 50 µg/mL
IC50, pseudovirus neutralization [29]: > 50 µg/mL
IC50 [30]: > 50 µg/mL
IC50, pseudovirus neutralization [31]: > 50 µg/mL
IC50, pseudovirus neutralization [32]: > 50 µg/mL
IC50, pseudovirus neutralization [33]: 3.55 µg/mL
IC50, pseudovirus neutralization [34]: 44.6 µg/mL
IC50, pseudovirus neutralization [35]: > 50 µg/mL
IC50 [36]: > 50 µg/mL
IC50 [37]: > 50 µg/mL
IC50 [38]: > 50 µg/mL
IC50 [39]: 0.509 µg/mL
IC50 [40]: > 50 µg/mL
IC50 [41]: 0.105 µg/mL
IC50, pseudovirus neutralization [42]: > 50 µg/mL
IC50 [43]: 20.6 µg/mL
IC50 [44]: > 50 µg/mL

PGT-145 (antibody)
IC50 (µg/mL), pseudovirus neutralization [45]: 5.82 µg/mL
IC50 (µg/mL), pseudovirus neutralization [46]: 0.099 µg/mL
IC50 (µg/mL), pseudovirus neutralization [47]: > 50 µg/mL
IC50 (µg/mL), pseudovirus neutralization [48]: 0.201 µg/mL
IC50 (µg/mL), pseudovirus neutralization [49]: 0.12 µg/mL
IC50 (µg/mL), pseudovirus neutralization [50]: 0.712 µg/mL
IC50 (µg/mL), pseudovirus neutralization [51]: > 50 µg/mL
IC50 (µg/mL), pseudovirus neutralization [52]: 0.095 µg/mL
IC50 (µg/mL), pseudovirus neutralization [53]: 0.492 µg/mL
IC50 (µg/mL), pseudovirus neutralization [54]: 0.044 µg/mL
IC50 (µg/mL), pseudovirus neutralization [55]: 0.174 µg/mL
IC50 (µg/mL), pseudovirus neutralization [56]: 0.005 µg/mL

PGT-142 (antibody)
IC50 (µg/mL), pseudovirus neutralization [45]: 6.02 µg/mL
IC50 (µg/mL), pseudovirus neutralization [46]: 2.12 µg/mL
IC50 (µg/mL), pseudovirus neutralization [47]: > 50 µg/mL
IC50 (µg/mL), pseudovirus neutralization [48]: 0.087 µg/mL
IC50 (µg/mL), pseudovirus neutralization [49]: 0.038 µg/mL
IC50 (µg/mL), pseudovirus neutralization [50]: 0.446 µg/mL
IC50 (µg/mL), pseudovirus neutralization [51]: 1.11 µg/mL
IC50 (µg/mL), pseudovirus neutralization [52]: 0.792 µg/mL
IC50 (µg/mL), pseudovirus neutralization [53]: 0.086 µg/mL
IC50 (µg/mL), pseudovirus neutralization [54]: 0.183 µg/mL
IC50 (µg/mL), pseudovirus neutralization [55]: 0.03 µg/mL
IC50 (µg/mL), pseudovirus neutralization [56]: 0.003 µg/mL

PGT-144 (antibody)
IC50 (µg/mL), pseudovirus neutralization [45]: > 50 µg/mL
IC50 (µg/mL), pseudovirus neutralization [46]: > 50 µg/mL
IC50 (µg/mL), pseudovirus neutralization [47]: > 50 µg/mL
IC50 (µg/mL), pseudovirus neutralization [48]: 0.38 µg/mL
IC50 (µg/mL), pseudovirus neutralization [49]: 0.236 µg/mL
IC50 (µg/mL), pseudovirus neutralization [50]: 1.29 µg/mL
IC50 (µg/mL), pseudovirus neutralization [51]: 23 µg/mL
IC50 (µg/mL), pseudovirus neutralization [52]: > 50 µg/mL
IC50 (µg/mL), pseudovirus neutralization [53]: 2.58 µg/mL
IC50 (µg/mL), pseudovirus neutralization [54]: 17.6 µg/mL
IC50 (µg/mL), pseudovirus neutralization [55]: 2.06 µg/mL
IC50 (µg/mL), pseudovirus neutralization [56]: 0.513 µg/mL

PGT-142 (4995_E20) (antibody)
IC50 [4]: 1 ng/mL
IC50 [5]: 0.192 µg/mL
IC50 [6]: 0.04 µg/mL
IC50 [7]: > 50 µg/mL
IC50 [8]: > 50 µg/mL
IC50 [9]: > 50 µg/mL
IC50, pseudovirus neutralization [10]: 21.7 µg/mL
IC50 [11]: > 50 µg/mL
IC50, pseudovirus neutralization [12]: > 50 µg/mL
IC50 [13]: > 50 µg/mL
IC50, pseudovirus neutralization [14]: 0.383 µg/mL
IC50 [15]: > 50 µg/mL
IC50 [16]: 0.155 µg/mL
IC50 [17]: > 50 µg/mL
IC50 [18]: 0.005 µg/mL
IC50 [19]: 0.124 µg/mL
IC50 [20]: > 50 µg/mL
IC50 [21]: 23.5 µg/mL
IC50 [22]: 12.5 µg/mL
IC50 [23]: 0.824 µg/mL
IC50, pseudovirus neutralization [24]: 12.1 µg/mL
IC50 [25]: 0.602 µg/mL
IC50, pseudovirus neutralization [26]: 0.044 µg/mL
IC50 [27]: 0.404 µg/mL
IC50 [28]: > 50 µg/mL
IC50, pseudovirus neutralization [29]: 6.7 µg/mL
IC50 [30]: > 50 µg/mL
IC50, pseudovirus neutralization [31]: > 50 µg/mL
IC50, pseudovirus neutralization [32]: > 50 µg/mL
IC50, pseudovirus neutralization [33]: 0.08 µg/mL
IC50, pseudovirus neutralization [34]: 0.081 µg/mL
IC50, pseudovirus neutralization [35]: 12.4 µg/mL
IC50 [36]: 0.221 µg/mL
IC50 [37]: > 50 µg/mL
IC50 [38]: > 50 µg/mL
IC50 [39]: 0.023 µg/mL
IC50 [40]: > 50 µg/mL
IC50 [41]: 0.013 µg/mL
IC50, pseudovirus neutralization [42]: > 50 µg/mL
IC50 [43]: 12.9 µg/mL
IC50 [44]: > 50 µg/mL

PGT-143 (antibody)
IC50 (µg/mL), pseudovirus neutralization [45]: 8.81 µg/mL
IC50 (µg/mL), pseudovirus neutralization [46]: 12.4 µg/mL
IC50 (µg/mL), pseudovirus neutralization [47]: > 50 µg/mL
IC50 (µg/mL), pseudovirus neutralization [48]: 0.148 µg/mL
IC50 (µg/mL), pseudovirus neutralization [49]: 0.085 µg/mL
IC50 (µg/mL), pseudovirus neutralization [50]: 0.797 µg/mL
IC50 (µg/mL), pseudovirus neutralization [51]: 5.17 µg/mL
IC50 (µg/mL), pseudovirus neutralization [52]: 0.598 µg/mL
IC50 (µg/mL), pseudovirus neutralization [53]: 0.103 µg/mL
IC50 (µg/mL), pseudovirus neutralization [54]: 0.336 µg/mL
IC50 (µg/mL), pseudovirus neutralization [55]: 0.05 µg/mL
IC50 (µg/mL), pseudovirus neutralization [56]: 0.004 µg/mL

PGT-141 (antibody)
IC50 (µg/mL), pseudovirus neutralization [45]: 11.8 µg/mL
IC50 (µg/mL), pseudovirus neutralization [46]: 13.8 µg/mL
IC50 (µg/mL), pseudovirus neutralization [47]: > 50 µg/mL
IC50 (µg/mL), pseudovirus neutralization [48]: 0.153 µg/mL
IC50 (µg/mL), pseudovirus neutralization [49]: 0.033 µg/mL
IC50 (µg/mL), pseudovirus neutralization [50]: 1.34 µg/mL
IC50 (µg/mL), pseudovirus neutralization [51]: 4.02 µg/mL
IC50 (µg/mL), pseudovirus neutralization [52]: 3.27 µg/mL
IC50 (µg/mL), pseudovirus neutralization [53]: 0.381 µg/mL
IC50 (µg/mL), pseudovirus neutralization [54]: 0.247 µg/mL
IC50 (µg/mL), pseudovirus neutralization [55]: 0.101 µg/mL
IC50 (µg/mL), pseudovirus neutralization [56]: 0.008 µg/mL

5117_E22 (labelled PGT-133 in Table 26) (antibody)
Primary Neutralization Index (B cell culture supernatant) [1]: 3.4
Primary Neutralization Index (B cell culture supernatant) [2]: 3.6
Primary Neutralization Index (B cell culture supernatant) [3]: 42.5
